# According to the supplement of paper PMC10567573:
# B1: CDC14A (parent)
# chain: LWVQGDIFRSKLKNRPSSEGSINK
# B2: CCDC70 (parent)
# chain: FSFKVSRWMGLACFRSLAASSPSI
# Variants of: B1
# Experiment: protein stability index of a GFP-peptide fusion (GPS, HEK-293T) (PSI 1-6); higher = more stable
# Conditions: c terminus: a fixed tail appended
# 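Also: lentivirally expressed fusions sorted by FACS into six bins by GFP to DsRed ratio, PSI derived from sequencing read proportions per bin multiplied by bin number.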
row,Variant,protein stability index
1,LWVQGDIFRSKLKNRPSSEGSIQK,2.31
2,LWVQGDIFRSKLKNRPSSEGSIGK,3.05
3,LWVQGDIFRSKLKNRPSSEGSIPK,3.06
4,LWVQGDIFRSKLKNRPSSEGSICK,2.17
5,LWVQGDIFRSKLKNRPSSEGSIEK,2.89
6,LWVQGDIFRSKLKNRPSSEGSIAK,2.08
7,LWVQGDIFRSKLKNRPSSEGSIKK,2.69
8,LWVQGDIFRSKLKNRPSSEGSIYK,1.91
9,LWVQGDIFRSKLKNRPSSEGSIFK,1.45
10,LWVQGDIFRSKLKNRPSSEGSIHK,2.65
11,LWVQGDIFRSKLKNRPSSEGSISK,2.96
12,LWVQGDIFRSKLKNRPSSEGSIRK,2.4
13,LWVQGDIFRSKLKNRPSSEGSIMK,2.15
14,LWVQGDIFRSKLKNRPSSEGSILK,2.1
15,LWVQGDIFRSKLKNRPSSEGSIDK,2.8
16,LWVQGDIFRSKLKNRPSSEGSITK,3.06
17,LWVQGDIFRSKLKNRPSSEGSIIK,2.15
18,LWVQGDIFRSKLKNRPSSEGSIWK,2.8
19,LWVQGDIFRSKLKNRPSSEGSINS,2.37

row,Variant,protein stability index
1,LWVQGDIFRSKLKNRPSSEGSINM,2.08
2,LWVQGDIFRSKLKNRPSSEGSINI,1.8
3,LWVQGDIFRSKLKNRPSSEGSING,2.26
4,LWVQGDIFRSKLKNRPSSEGSINH,2.06
5,LWVQGDIFRSKLKNRPSSEGSINA,2.31
6,LWVQGDIFRSKLKNRPSSEGSINC,1.93
7,LWVQGDIFRSKLKNRPSSEGSINE,2.73
8,LWVQGDIFRSKLKNRPSSEGSINF,1.75
9,LWVQGDIFRSKLKNRPSSEGSINV,1.63
10,LWVQGDIFRSKLKNRPSSEGSINY,1.73
11,LWVQGDIFRSKLKNRPSSEGSINL,1.91
12,LWVQGDIFRSKLKNRPSSEGSINR,2.52
13,LWVQGDIFRSKLKNRPSSEGSIND,2.79
14,LWVQGDIFRSKLKNRPSSEGSINT,2.83
15,LWVQGDIFRSKLKNRPSSEGSINW,2.47
16,LWVQGDIFRSKLKNRPSSEGSINN,2.79
17,LWVQGDIFRSKLKNRPSSEGSINQ,2.41
18,LWVQGDIFRSKLKNRPSSEGSINP,2.46

# Variants of: B2
# Experiment: as above
# Conditions: c terminus: a fixed tail appended
row,Variant,protein stability index
1,FSFKESRWMGLACFRSLAASSPSI,1.29
2,FSFKGSRWMGLACFRSLAASSPSI,2.54
3,FSFKHSRWMGLACFRSLAASSPSI,2
4,FSFKKSRWMGLACFRSLAASSPSI,2.28
5,FSFKFSRWMGLACFRSLAASSPSI,2.74
6,FSFKQSRWMGLACFRSLAASSPSI,3.04
7,FSFKCSRWMGLACFRSLAASSPSI,2.92
8,FSFKYSRWMGLACFRSLAASSPSI,2.98
9,FSFKDSRWMGLACFRSLAASSPSI,1.73
10,FSFKWSRWMGLACFRSLAASSPSI,2.13
11,FSFKRSRWMGLACFRSLAASSPSI,3.55
12,FSFKLSRWMGLACFRSLAASSPSI,2.22
13,FSFKMSRWMGLACFRSLAASSPSI,2.01
14,FSFKTSRWMGLACFRSLAASSPSI,2.77
15,FSFKASRWMGLACFRSLAASSPSI,3.24
16,FSFKNSRWMGLACFRSLAASSPSI,2.78
17,FSFKISRWMGLACFRSLAASSPSI,1.72
18,FSFKPSRWMGLACFRSLAASSPSI,2.21
19,FGFKVSRWMGLACFRSLAASSPSI,1.56
20,FHFKVSRWMGLACFRSLAASSPSI,1.33
21,FTFKVSRWMGLACFRSLAASSPSI,2.69
22,FRFKVSRWMGLACFRSLAASSPSI,1.49
23,FCFKVSRWMGLACFRSLAASSPSI,3.54
24,FIFKVSRWMGLACFRSLAASSPSI,3.26
25,FYFKVSRWMGLACFRSLAASSPSI,2.62
26,FQFKVSRWMGLACFRSLAASSPSI,3.39

row,Variant,protein stability index
1,FPFKVSRWMGLACFRSLAASSPSI,2.37
2,FDFKVSRWMGLACFRSLAASSPSI,2.19
3,FMFKVSRWMGLACFRSLAASSPSI,2.1
4,FAFKVSRWMGLACFRSLAASSPSI,1.82
5,FNFKVSRWMGLACFRSLAASSPSI,2.32
6,FKFKVSRWMGLACFRSLAASSPSI,2.59
7,FVFKVSRWMGLACFRSLAASSPSI,1.84
8,FFFKVSRWMGLACFRSLAASSPSI,3.87
9,FSFKVSVWMGLACFRSLAASSPSI,3.67
10,FSFKVSSWMGLACFRSLAASSPSI,2.14
11,FSFKVSMWMGLACFRSLAASSPSI,2.33
12,FSFKVSDWMGLACFRSLAASSPSI,2.9
13,FSFKVSCWMGLACFRSLAASSPSI,3.09
14,FSFKVSHWMGLACFRSLAASSPSI,3.25
15,FSFKVSQWMGLACFRSLAASSPSI,2.19
16,FSFKVSNWMGLACFRSLAASSPSI,2.53
17,FSFKVSKWMGLACFRSLAASSPSI,2.3
18,FSFKVSEWMGLACFRSLAASSPSI,3.4
19,FSFKVSAWMGLACFRSLAASSPSI,2.22
20,FSFKVSYWMGLACFRSLAASSPSI,2.52
21,FSFKVSWWMGLACFRSLAASSPSI,3.02
22,FSFKVSFWMGLACFRSLAASSPSI,2.69
23,FSFKVSGWMGLACFRSLAASSPSI,1.65
24,FSFKVSIWMGLACFRSLAASSPSI,4.23
25,FSFKVSRAMGLACFRSLAASSPSI,1.12
26,FSFKVSRTMGLACFRSLAASSPSI,2.58

row,Variant,protein stability index
1,FSFKVSRVMGLACFRSLAASSPSI,3.21
2,FSFKVSRGMGLACFRSLAASSPSI,3.55
3,FSFKVSRFMGLACFRSLAASSPSI,4.12
4,FSFKVSRRMGLACFRSLAASSPSI,1.81
5,FSFKVSREMGLACFRSLAASSPSI,1.29
6,FSFKVSRSMGLACFRSLAASSPSI,2.08
7,FSFKVSRYMGLACFRSLAASSPSI,3.02
8,FSFKVSRHMGLACFRSLAASSPSI,2.82
9,FSFKVSRQMGLACFRSLAASSPSI,3.47
10,FSFKVSRIMGLACFRSLAASSPSI,2.9
11,FSFKVSRMMGLACFRSLAASSPSI,1.77
12,FSFKVSRDMGLACFRSLAASSPSI,1.76
13,FSFKVSRCMGLACFRSLAASSPSI,2.07
14,FSFKVSRLMGLACFRSLAASSPSI,3.27
15,FSFKVSRPMGLACFRSLAASSPSI,2.4
16,FSFKVSRKMGLACFRSLAASSPSI,2.29
17,FSAKVSRWMGLACFRSLAASSPSI,3.33
18,FSVKVSRWMGLACFRSLAASSPSI,1.38
19,FSWKVSRWMGLACFRSLAASSPSI,1.82
20,FSPKVSRWMGLACFRSLAASSPSI,2.57
21,FSTKVSRWMGLACFRSLAASSPSI,1.83
22,FSQKVSRWMGLACFRSLAASSPSI,1.92
23,FSCKVSRWMGLACFRSLAASSPSI,2.74
24,FSLKVSRWMGLACFRSLAASSPSI,4.25
25,FSHKVSRWMGLACFRSLAASSPSI,1.87
26,FSKKVSRWMGLACFRSLAASSPSI,1.39

row,Variant,protein stability index
1,FSDKVSRWMGLACFRSLAASSPSI,1.63
2,FSRKVSRWMGLACFRSLAASSPSI,3.02
3,FSIKVSRWMGLACFRSLAASSPSI,2.92
4,FSNKVSRWMGLACFRSLAASSPSI,2.5
5,FSSKVSRWMGLACFRSLAASSPSI,2.6
6,FSEKVSRWMGLACFRSLAASSPSI,2.21
7,FSFKVSRWMCLACFRSLAASSPSI,1.55
8,FSFKVSRWMALACFRSLAASSPSI,3.75
9,FSFKVSRWMDLACFRSLAASSPSI,3.79
10,FSFKVTRWMGLACFRSLAASSPSI,2.43
11,FSFKVCRWMGLACFRSLAASSPSI,2.82
12,FSFKVRRWMGLACFRSLAASSPSI,2.09
13,FSFKVIRWMGLACFRSLAASSPSI,2.7
14,FSFKVFRWMGLACFRSLAASSPSI,1.69
15,FSFKVKRWMGLACFRSLAASSPSI,2.24
16,FSFKVERWMGLACFRSLAASSPSI,3.26
17,FSFKVYRWMGLACFRSLAASSPSI,2.88
18,FSFKVGRWMGLACFRSLAASSPSI,2.88
19,FSFKVNRWMGLACFRSLAASSPSI,3.31
20,FSFKVPRWMGLACFRSLAASSPSI,2.51
21,FSFKVLRWMGLACFRSLAASSPSI,2.29
22,FSFKVWRWMGLACFRSLAASSPSI,3.02
23,FSFKVDRWMGLACFRSLAASSPSI,2.35
24,FSFKVMRWMGLACFRSLAASSPSI,2.17
25,FSFKVARWMGLACFRSLAASSPSI,2.99
26,FSFKVQRWMGLACFRSLAASSPSI,3.43

row,Variant,protein stability index
1,FSFKVVRWMGLACFRSLAASSPSI,4.41
2,YSFKVSRWMGLACFRSLAASSPSI,2.33
3,WSFKVSRWMGLACFRSLAASSPSI,2.34
4,KSFKVSRWMGLACFRSLAASSPSI,2.46
5,GSFKVSRWMGLACFRSLAASSPSI,2.57
6,LSFKVSRWMGLACFRSLAASSPSI,4.16
7,ESFKVSRWMGLACFRSLAASSPSI,3.1
8,MSFKVSRWMGLACFRSLAASSPSI,4.47
9,PSFKVSRWMGLACFRSLAASSPSI,2.2
10,NSFKVSRWMGLACFRSLAASSPSI,2.35
11,SSFKVSRWMGLACFRSLAASSPSI,1.38
12,DSFKVSRWMGLACFRSLAASSPSI,1.25
13,QSFKVSRWMGLACFRSLAASSPSI,2.12
14,CSFKVSRWMGLACFRSLAASSPSI,2.38
15,RSFKVSRWMGLACFRSLAASSPSI,2.08
16,ISFKVSRWMGLACFRSLAASSPSI,1.68
17,TSFKVSRWMGLACFRSLAASSPSI,2.53
18,ASFKVSRWMGLACFRSLAASSPSI,2.36
19,FSFTVSRWMGLACFRSLAASSPSI,2.38
20,FSFIVSRWMGLACFRSLAASSPSI,3.39
21,FSFEVSRWMGLACFRSLAASSPSI,1.92
22,FSFHVSRWMGLACFRSLAASSPSI,2.73
23,FSFSVSRWMGLACFRSLAASSPSI,3.25
24,FSFRVSRWMGLACFRSLAASSPSI,2.22
25,FSFMVSRWMGLACFRSLAASSPSI,2.34
26,FSFWVSRWMGLACFRSLAASSPSI,4.77

row,Variant,protein stability index
1,FSFNVSRWMGLACFRSLAASSPSI,2.51
2,FSFGVSRWMGLACFRSLAASSPSI,2.99
3,FSFCVSRWMGLACFRSLAASSPSI,3.35
4,FSFAVSRWMGLACFRSLAASSPSI,2.38
5,FSFVVSRWMGLACFRSLAASSPSI,3.11
6,FSFDVSRWMGLACFRSLAASSPSI,3.56
7,FSFLVSRWMGLACFRSLAASSPSI,3.31
8,FSFYVSRWMGLACFRSLAASSPSI,3.24
9,FSFPVSRWMGLACFRSLAASSPSI,1.65
10,FSFKVSRWYGLACFRSLAASSPSI,3.2
11,FSFKVSRWHGLACFRSLAASSPSI,2.8
12,FSFKVSRWFGLACFRSLAASSPSI,2.95
13,FSFKVSRWLGLACFRSLAASSPSI,4.57
14,FSFKVSRWDGLACFRSLAASSPSI,4.03
15,FSFKVSRWAGLACFRSLAASSPSI,2.28
16,FSFKVSRWNGLACFRSLAASSPSI,2.15
17,FSFKVSRWCGLACFRSLAASSPSI,3.07
18,FSFKVSRWKGLACFRSLAASSPSI,2.21
19,FSFKVSRWPGLACFRSLAASSPSI,1.36
20,FSFKVSRWIGLACFRSLAASSPSI,4.43
21,FSFKVSRWEGLACFRSLAASSPSI,2.5
